In patent publication US20250235545A1, “POLYPEPTIDE CONJUGATE AND USE THEREOF” (SHANGHAI CHIXI BIOMEDICAL TECHNOLOGY CO., LTD, priority 2024, published 2025):
≈ marks a conversion by molar mass, not a printed value. Read-outs that look alike come from different tables or passages of the source. Where a SMILES comes first, the peptide text is derived from it. The star is where a group is joined. NEt(2-(20S-CPT-7-yl)ethyl) = CCN(CCc1c2c(nc3ccccc13)-c1cc3c(c(=O)n1C2)COC(=O)[C@]3(O)CC)*; Belotecan = CC[C@@]1(O)C(=O)OCc2c1cc1n(c2=O)Cc2c-1nc1ccccc1c2CCN(C(C)C)*; X1 = CC[C@@]1(O)C(=O)OCc2c1cc1n(c2=O)Cc2c-1nc1ccccc1c2CCN(C1CCC1)*; X3 = CC[C@@]1(O)C(=O)OCc2c1cc1n(c2=O)Cc2c-1nc1ccccc1c2CCN(C1CC1)*; Propanoyl(3-maleimido) = O=C1C=CC(=O)N1CCC(=O)*; PEG6 = NCCOCCOCCOCCOCCOCCOCCC(=O)O

Columns and labels:
[1] = test system: A2780 (ovarian cancer); assay: cells; type: cell-based; conditions: CCK8, 48 h; Table 6
Procedure, shortened: (§1)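 Cells seeded at 5,000 cells/well in RPMI1640 or DMEM high-glucose with 10% FBS and 1 mM sodium pyruvate, exposed to graded drug concentrations for 48 h at 37° C., 5% CO2; 0.1% DMSO controls. CCK8 added for ~2 h, absorbance 450 nm; survival rates and IC50 calculated.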

[2] = test system: A549 (non-small cell lung cancer); assay: cells; type: cell-based; conditions: CCK8, 48 h; Table 6
Procedure, shortened: as §1

[3] = test system: SJSA-1 (sarcoma tissue); assay: cells; type: cell-based; conditions: CCK8, 48 h; Table 6
Procedure, shortened: as §1

[4] = test system: SKBR3 (breast cancer tissue); assay: cells; type: cell-based; conditions: CCK8, 48 h; Table 6
Procedure, shortened: as §1

[5] = test system: colo320 (colorectal cancer tissue); assay: cells; type: cell-based; conditions: CCK8, 48 h; Table 6
Procedure, shortened: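 Colo320 cells, 5,000 per well, exposed to drug concentration series for 48 h at 37 °C, 5% CO2 (0.1% DMSO controls). Viability by CCK8, absorbance at 450 nm after about 2 h. Survival rates and IC50 calculated.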

[6] = test system: sarcoma SJSA-1 tumor model; conditions: Table 7
Procedure, shortened: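 SJSA-1 cells (2×10^7, DMEM/10% FBS, under 15 passages) implanted subcutaneously in right chest of female BALB/c nude mice, 6-8 weeks old. At ≥100 mm^3, randomized three per group; dosing once weekly for three weeks, saline as control, day 1 = first treatment.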

[7] = test system: colo320 colorectal cancer tumor model
Procedure, shortened: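 Female BALB/c nude mice, 6–8 weeks old, received 7.5×10^6 colo320 cells subcutaneously in the right chest. Once tumors reached at least 120 mm^3 they were randomized three per group. Treatment with test agents or saline control was given once weekly for four weeks.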

[8] = test system: sarcoma SJSA-1 tumor model; assay: Efficacy in animal model of sarcoma SJSA-1, 30 mg/kg once a week for two weeks (Example 40); type: in vivo, BALB/c mice; conditions: 30 mg/kg once a week for two weeks
Procedure: Test objective: To further compare the antitumor efficacy of different polypeptide Linkers in an animal tumor model of sarcoma SJSA-1.
(§2) Test drug: Polypeptide conjugate and normal saline control group.
The control group was administered normal saline. Administration was performed once a week for two weeks.

[9] = test system: A2780 ovarian cancer tumor model; assay: Efficacy in animal model of A2780 ovarian cancer, 30 mg/kg once a week for two weeks (Example 41); type: in vivo, BALB/c mice; conditions: Day 14
Procedure: Test objective: To further compare the antitumor efficacy of different polypeptide Linkers in an animal tumor model of A2780 ovarian cancer.
as §2
8×10^6 corresponding cells were injected into right axillas of nude mice subcutaneously. […] The negative control group was administered normal saline. Administration was performed once a week for two weeks.

[10] = MTD determination in mice (Examples 27, 36, 44); type: in vivo; conditions: female, mouse, in vivo; mice, monitored for 14 d; Table 9
Excerpt: Test animals: 6-8 weeks old mice, all female; mice were grouped randomly, with six mice in each group, administered with drugs at different concentration gradients separately and monitored for 14 d. A mouse was euthanized at a loss of 20% of its initial weight and deemed to have died of poisoning.

[11] = Tumor homogenate activation efficiency, ovarian cancer tissue (Examples 28, 37); type: in vitro ADME; conditions: pH 5.0, 37° C., 2 h; Table 10
Procedure, shortened: (§3)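 HPLC after 2 h at 37° C. tracks conjugate loss and Belotecan gain, with release expressed as Belotecan peak area as a fraction of all Belotecan-containing peaks. Reaction: 100 μg homogenate plus 1 mg/ml conjugate in 50 mM MES, 250 mM NaCl, pH 5.0.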

[12] = Tumor homogenate activation efficiency, sarcoma tissue (Examples 28, 37); type: in vitro ADME; conditions: pH 5.0, 37° C., 2 h; Table 10
Procedure, shortened: as §3

[13] = Tumor homogenate activation efficiency, breast cancer tissue (Examples 28, 37); type: in vitro ADME; conditions: pH 5.0, 37° C., 2 h; Table 10
Procedure, shortened: as §3

[14] = Tumor homogenate activation efficiency, non-small cell lung cancer tissue (Examples 28, 37); type: in vitro ADME; conditions: pH 5.0, 37° C., 2 h; Table 10
Procedure, shortened: as §3

[15] = Tumor homogenate activation efficiency, colorectal cancer tissue (Example 37); type: in vitro ADME; conditions: pH 5.0, 37° C., 2 h; Table 10
Procedure: Buffer preparation: 50 mM PH buffer (MES), 250 mM NaCl, pH adjusted to 5.0 with 0.5 M of sodium hydroxide.
The polypeptide conjugate was prepared into a 1 mg/ml solution with pH 5.0 buffer, 100 μg of tumor tissue homogenate was added, (the tumor tissue homogenate was the homogenate of tumor tissues prepared with a Jingxin F6/10 handheld homogenizer), and the solution was placed at 37° C. for 2 h. The tumor tissue homogenate could effectively activate the polypeptide conjugate and release Belotecan, and the activation efficiencies of the drugs in tumor tissues were compared by HPLC allowing determination of a decrease in the compounds and an increase in Belotecan:
Release percentage=peak area of Belotecan/total peak area of Belotecan and all other Belotecan-containing compounds

[16] = Homogenate activation efficiency, heart tissue (Examples 28, 37); type: in vitro ADME; conditions: pH 5.0, 37° C., 2 h; Table 10
[17] = 15 mg/kg once a week for three weeks
[18] = 45 mg/kg once a week for three weeks
[19] = 15 mg/kg once a week for four weeks, Table 8
[20] = 45 mg/kg once a week for four weeks, Table 8
[21] = Table 14 (Example 43), dose 45 mg/kg, once a week for four weeks, BALB/c mice

| SMILES | IC50 Ovarian cancer tissue (A2780) [1] [µg/mL] | IC50 Non-small cell lung cancer tissue (A549) [2] [µg/mL] | IC50 Sarcoma tissue (SJSA-1) [3] [µg/mL] | IC50 Breast cancer tissue (SKBR3) [4] [µg/mL] | IC50 Colorectal cancer tissue (colo320) [5] [µg/mL] | Mouse weight (%) [6, 17] | Mouse weight (%) [6, 18] | Mouse weight (%) [7, 19] | Mouse weight (%) [7, 20] | Mouse weight (%) on Day 14 ([8]; Day 14) | Mouse weight (%) on Day 14 [9] | MTD at 14 d [10] [mg/kg] | Percentage of release efficiency (%) Ovarian cancer tissue (A2780) [11] [%] | Percentage of release efficiency (%) Sarcoma tissue (SJSA1) [12] [%] | Percentage of release efficiency (%) Breast cancer tissue (SKBR3) [13] [%] | Percentage of release efficiency (%) Non-small cell lung cancer tissue (A549) [14] [%] | Percentage of release efficiency (%) Colorectal cancer tissue (colo320) [15] [%] | Percentage of release efficiency (%) Heart tissue [16] [%] | Mouse weight (%) [7, 21] | also measured |
| --- | --- | --- | --- | --- | --- | --- | --- | --- | --- | --- | --- | --- | --- | --- | --- | --- | --- | --- | --- | --- |
| CC[C@@]1(O)C(=O)OCc2c1cc1n(c2=O)Cc2c-1nc1ccccc1c2CCN(C(=O)[C@H](CC(C)C)NC(=O)[C@H](CC(N)=O)NC(=O)[C@H](C)NC(=O)[C@H](C)NC(=O)CCOCCOCCOCCOCCOCCOCCNC(=O)CCN1C(=O)C=CC1=O)C1CC1 [MI-6PEG-AANL-D6] ({Propanoyl(3-maleimido)-PEG6}-AANL-X3) | 0.70 (≈ 0.544 µM) | 1.38 (≈ 1.07 µM) | 0.51 (≈ 0.396 µM) | 2.02 (≈ 1.57 µM) | 1.87 (≈ 1.45 µM) | +19% | +17% | +25% | +5% | −2.5% | +5.2% | 120 | 76.2 | 69.5 | 66.9 | 66.1 | 73.5 | 3 | – | – |
| CC[C@@]1(O)C(=O)OCc2c1cc1n(c2=O)Cc2c-1nc1ccccc1c2CCN(C(=O)[C@H](CC(C)C)NC(=O)[C@H](CC(N)=O)NC(=O)[C@H](C)NC(=O)[C@H](C)NC(=O)CCOCCOCCOCCOCCOCCOCCNC(=O)CCN1C(=O)C=CC1=O)C1CCC1 [MI-6PEG-AANL-D7] ({Propanoyl(3-maleimido)-PEG6}-AANL-X1) | 0.91 (≈ 0.699 µM) | 1.81 (≈ 1.39 µM) | 1.33 (≈ 1.02 µM) | 2.01 (≈ 1.54 µM) | 2.48 (≈ 1.91 µM) | +12% | +19% | +29% | +9% | −3.3% | +4.8% | 150 | 66.7 | 71.7 | 72.3 | 74.6 | 76.4 | 2.2 | – | – |
| CCN(CCc1c2c(nc3ccccc13)-c1cc3c(c(=O)n1C2)COC(=O)[C@]3(O)CC)C(=O)[C@H](CC(C)C)NC(=O)[C@H](CC(N)=O)NC(=O)[C@H](C)NC(=O)[C@H](C)NC(=O)CCOCCOCCOCCOCCOCCOCCNC(=O)CCN1C(=O)C=CC1=O [MI-6PEG-AANL-D2] ({Propanoyl(3-maleimido)-PEG6}-AANL-{NEt(2-(20S-CPT-7-yl)ethyl)}) | 1.31 (≈ 1.03 µM) | 2.57 (≈ 2.02 µM) | 1.58 (≈ 1.24 µM) | 3.28 (≈ 2.57 µM) | 4.65 (≈ 3.65 µM) | +41% | +24% | – | +19% | +1.9% | – | 200 | 71.3 | 67.1 | 73.5 | 73.6 | 65 | 0.9 | +19% | SJSA-1 (sarcoma tissue) growth rate (%) [6, 17]: 1316.56%; SJSA-1 (sarcoma tissue) mean tumor volume (mm^3) [6, 17]: 1645.7 mm^3; SJSA-1 (sarcoma tissue) growth rate (%) [6, 18]: 964.08%; SJSA-1 (sarcoma tissue) mean tumor volume (mm^3) [6, 18]: 1213.3 mm^3; colo320 (colorectal cancer cell) growth rate (%) [7, 20]: 760.87%; colo320 (colorectal cancer cell) mean tumor volume (mm^3) [7, 20]: 894.4 mm^3; colo320 (colorectal cancer cell) growth rate (%) [7, 21]: 760.87%; colo320 (colorectal cancer cell) mean tumor volume (mm^3) [7, 21]: 894.4 mm^3; SJSA-1 (sarcoma tissue) mean tumor volume (mm^3) Day 1 ([8]; Day 1): 136.59 mm^3; SJSA-1 (sarcoma tissue) mean tumor volume (mm^3) Day 4 ([8]; Day 4): 465.17 mm^3; SJSA-1 (sarcoma tissue) mean tumor volume (mm^3) Day 7 ([8]; Day 7): 891.36 mm^3; SJSA-1 (sarcoma tissue) mean tumor volume (mm^3) Day 10 ([8]; Day 10): 1320.55 mm^3; SJSA-1 (sarcoma tissue) growth rate (%) on Day 14 ([8]; Day 14): 1623.94%; SJSA-1 (sarcoma tissue) mean tumor volume (mm^3) Day 14 ([8]; Day 14): 2218.14 mm^3 |
| CC[C@@]1(O)C(=O)OCc2c1cc1n(c2=O)Cc2c-1nc1ccccc1c2CCN(C(=O)[C@H](CC(C)C)NC(=O)[C@H](CC(N)=O)NC(=O)[C@H](C)NC(=O)[C@H](C)NC(=O)CCOCCOCCOCCOCCOCCOCCNC(=O)CCN1C(=O)C=CC1=O)C(C)C [MI-6PEG-AANL-Belotecan] ({Propanoyl(3-maleimido)-PEG6}-AANL-Belotecan) | 0.91 (≈ 0.706 µM) | 1.55 (≈ 1.2 µM) | 0.90 (≈ 0.698 µM) | 2.48 (≈ 1.92 µM) | 2.74 (≈ 2.12 µM) | +24% | +21% | +22% | +2% | −1.3% | – | 150 | 81.2 | 75.5 | 69.5 | 76.5 | 75.6 | 2.5 | +2% | – |
